Reference: patent US20220175942A1
Substitutions are numbered along the chain they refer to.

B1: P974_AMBCA, A0A023FDY8 22-118 (protein)
chain: ENTQQEEQDYDYGTDTCPFPVLANKTNKAKFVGCHQKCNGGDQKLTDGTACYVVERKVWDRMTPMLWYECPLGECKNGVCEDLRKKEDCRKGNGEEK
B2: P546_AMBCA, A0A023FBW7 22-118 (protein)
chain: B1 chain with Q8E, E69S, D88E

Experiments:
[1] = target: T1, CCL5_HUMAN (human), P13501; test: BLI; settings: other; chains chain; remark: other sources report otherwise
T1 chain: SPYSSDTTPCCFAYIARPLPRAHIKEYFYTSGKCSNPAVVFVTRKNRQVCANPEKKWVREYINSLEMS

[2] = target: T2, CCL19_HUMAN (human), Q99731; test: microscale thermophoresis, AlexaFluor 647 labelled chemokine; settings: remark: other sources report otherwise
T2 chain: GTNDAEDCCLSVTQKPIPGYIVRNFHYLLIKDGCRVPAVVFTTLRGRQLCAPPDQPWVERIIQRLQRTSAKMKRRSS

[3] = target: CCL20_HUMAN (human), P78556; test: as above; settings: remark: other sources report otherwise
[4] = target: T1, CCL5_HUMAN (human), P13501; test: as above; settings: remark: other sources report otherwise
[5] = target: T3, CX3CL1_HUMAN (human), P78423; test: as above; settings: remark: other sources report otherwise
T3 chain: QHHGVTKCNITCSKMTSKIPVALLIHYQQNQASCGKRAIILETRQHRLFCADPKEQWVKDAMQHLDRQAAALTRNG

[6] = target: CXCL10_HUMAN (human), P02778; test: as above; settings: remark: other sources report otherwise
[7] = target: CXCL12_HUMAN (human), P48061; test: as above; settings: remark: other sources report otherwise
[8] = target: CXCL8_HUMAN (human), P10145; test: as above; settings: remark: other sources report otherwise
Sequence of CXCL8_HUMAN (human), P10145 (P10145 28-99 limits assumed): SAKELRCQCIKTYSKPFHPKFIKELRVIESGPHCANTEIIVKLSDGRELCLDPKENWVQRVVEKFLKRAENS

Sequence of CXCL12_HUMAN (human), P48061 (P48061 22-89 limits assumed): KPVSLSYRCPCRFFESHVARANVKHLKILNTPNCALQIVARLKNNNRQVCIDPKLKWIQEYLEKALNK
Sequence of CXCL10_HUMAN (human), P02778 (P02778 22-98 limits assumed): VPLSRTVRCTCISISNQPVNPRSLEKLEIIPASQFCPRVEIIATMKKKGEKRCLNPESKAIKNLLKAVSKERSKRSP
Sequence of CCL20_HUMAN (human), P78556 (P78556 27-96 limits assumed): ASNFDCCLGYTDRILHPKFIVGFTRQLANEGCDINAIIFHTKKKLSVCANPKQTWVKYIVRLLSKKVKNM

Binder	Kd [1]	Kd [2]	Kd [3]	Kd [4]	Kd [5]	Kd [6]	Kd [7]	Kd [8]
B1	160 nM	–	–	–	–	–	–	–
B2	–	367 nM	232 nM	128 nM	140 nM	104 nM	71 nM	56 nM
